Assay: soluble on expression in E. coli; label from the status in PepcDB or PDB records

Sequence | soluble on expression in E. coli
MGSDKIHHHHHHMSTELRRVTYGNHGVARLTPAPDKPGTYMGMPKFSKAVKGELNLSVQRKNMRNATMTIRNKRAMRVSESPDWQDLRDAAESIKNRVGRHLDHYLVEAEKNLTANGVHVHWARDGEEANRIVAQIAKDKGVDEVVKIKSITSQETDLNEYLEEQGIAAWETDLAELIVQLGHDRPSHIVVPAIHRNRAEVREIFLHEMKNYGRPAPEDISENPPELTNAARLHLREKFLRAEMAVSGGNFVLADTGSLVIVESEGNGRMCLTLPDTLVSIVGIEKVLPSFDDLEVFLKLLPRSATGERMNPYNSVWSGVTDGDGPQEQHVIFLDNGRTDVLADTLGREVLRCIRCASCINICPVYERAGGHAYGSVYPGPIGAVLNPQLRGVEHPVDRGLPYACSLCGACNEVCPVKIPFTDILLKLRNKVVKSEKADRIPQDYEVAGEMGLMKTASWAFSDHKHFEAIQVGSRGVGRVLRGKKMGPVPVPVAERWLKYRDVDAPPADTFRTWWKKNREAQR | not soluble
MGSDKIHHHHHHMKGISHRIAIPLILEVGNNKIYNIGQIIKKGNFKRVSLYFGEGIYELFGETIEKSIKSSNIEIEAVETVKNIDFDEIGTNAFKIPAEVDALIGIGGGKAIDAVKYMAFLRKLPFISVPTSTSNDGFSSPVASLLINGKRTSVPAKTPDGIVVDIDVIKGSPEKFIYSGIGDLVSNITALYDWKFEEENHKSIIDDFAVMISKKSVNSFVRTDFKSIKDEVFLKELVDSLTMNGIAMEIAGNSSPASGAEHLISHALDKFLPNPQLHGIQVGVATYIMSKVHKHREERIKKILSDTGFFNYVKGLNMKKSDFKRAISEAHLIKPARYTYLHVEKNCETAKEIVDTDEILRNILV | not soluble
MGSDKIHHHHHHMSSDSRDLARSATAWPFQEARALLDERLKGKAPDKGYVLFETGYGPSGLPHIGTFGEVARTTMVRRAFSLLAPEIPTRLFAFSDDMDGLRKVPDNIPNKEMVAKHLGKPLTRIPDPFGTHESFGHHNNARLCSFLDTFGFEYEFQSATDWYKSGRFDAALLGVLKHYDEVINVVLPTLGDERRATYSPFLPVCPDTGIVLQVPVVERNVEAGTIVYKREDGKLIETPVTGGACKLQWKADWGMRWVALGVDYEMSGKDLIPSVQLSTRIATILGGRAPLNLTYELFLDDQGQKISKSKGNGLAVEDWLKYAPQESLALFMYQKPKTAKRLYFDVIPRAVDEYLAYLGKFPSEEPGKKLDNPVWHIHGGKPPAEDAHLSFNILMNLVSVCHSDDPAVIWGFIKRYAPGAAPETAPILNGLVGYAIAYFKDFVKPNMKYRKATPDEVEAFTALKDGLLALPADASVDDIQNLVYAIGKRPCFGELKAWFKACYEVLLGNDQGPRMGSFIKLFGIAETIALLDKAIAGEDM | not soluble
MSLKIKSIKAITLSMPFSHGGKKVIFHGKEWKSLEFNLVKVETDKGIIGWGEAFGYTSWKAVKIAIEDMVAPLLVGKDMTNIPELILILQKSLHLFGRYGITMFAISGVEIALWDALGKEKNKPIHELLGKKNKDLFKAYSSLFRYGDPKIVEQKCKQSLDDGYQAIKLHEIENNCIEAGRKGTGNLPLMLDTNCPWTYEETLAKKNFLQEMRLTWLEEPIYPPEDYQTLAKLKKELDIPIACGENACTEFEFKSIIDQNAVTYVQPSVIKVGGIYEMFKIIQHAEKNNILVMPHTAYFGPGFLATLQLASLMKNETYIERFYLDIDQEFYPNFKRALNGKYKLPSGPGLGIDLDYKKLSKYEIEGHHHHHH | soluble
MWDVKDIEQLSFARGLAIDETNDHQYKLTYQNLLPQSEDSQASGKPEFVNVTSHGKTILEAVSDVSIKDPPVYSDHLKVILLGEKLMRNQNVDQVLNHFIRDDELRRSSYLMAARGNAADVFTKGNPNQQQPMPSEKLIDLTTHSGYNGKIMIPLRIGRASVYSQNGYSYLIQAVKNEKGKAKYDGAGIIKRGSNKLVGFLSADETQTLSWVMGTIQGGVMPTTDKGHPITFEIKKSKTKIKPVIENGKPVFHISVKTKGILTEDQNPNENSFSKSYLHRLENIFEKKLERDVKQVMDKLQHEYKTDPVFLSDHIRIQHPDYWNKVKGHWDEIFSETDFKYDISFKIINFGTVGKLEHHHHHH | soluble
DQNAYHSIRTLLKSPTTLGEVKEHITHALTITPTKGSVINAFEHMWGYFKKQCTQYEKQHSRELKALYIENQIDYFELLSFLKNLADKYAVEYLQQSTILNITK | not soluble
MTYGVISWWDYGHWIEAVAHRMPIANPFQAGIGNKYNNVPGASSFFTAENESYAEFVAEKLNVKYVVSDIEMETGKYYAMAVWAEGDLPLAEKYYGGYFYYSPTGTFGYANSQWDIPLNSIIIPLRIPSELYYSTMEAKLHLFDGSGLSHYRMIYESDYPAEWKSYSSQVNLNNESQVLQTALYEAVMRARYGVSPTLEHHHHHH | not soluble
MSLKFAFIAKHRSIWPVAWLCEALGVSRSGFHAWFNRSPSEHARHDEVLLERIKQSFQSSDRTYGARRVWHDVLEEGLSCGLHRIERLMRLNALRARPRRRGFPKDAGDRPVVMPNVLDRQFVADRPNQKWVADFTYIWTAEGWLYVAAVIDLFSRRVVGWSMNANMTAQLVTDALIMAIWRRGKPDALLHHSDQGSQYTSEQFQRLMGDHGITCSMSRSGNVWDNAAMESFFSSLKTERTARKVYRTRNDARADVFDYIERFYNPKRRHSTLGYLSPDDFETKVGLAEGHHHHHH | not soluble
PFKEVSPNSFLLDDSHALSQLLKKSYRWYSPVFSPRNVPRFADVSSITESPETLKAIRDFLVQRYRAMSPAPTHILGFDARGFLFGPMIAVELEIPFVLMRKADKNAGLLIRSEPYEKEYKEAAPEVMTIRYGSIGKGSRVVLIDDVLATGGTALSGLQLVEASDAVVVEMVSILSIPFLKAAEKIHSTANSRYKDIKFISLLSDDALTEENCGDSKNYTGPRVLSCGDVLAEHPH | soluble
MGLFLEDLAVGDRFDSARHRVEAAAIKAFAGEFDPQPFHLDEEAARHSLFGGLAASGWHTAAITMRLLVTSGLPLAQGIIGAGTELSWPNPTRPGDELHVETTVLAITPSKSRPDRAIVTCQSDTLNQRGEVVQRSTAKVVVFRRPLEHHHHHH | soluble
MSEKYIVTWDMLQIHARKLASRLMPSEQWKGIIAVSRGGLVPGALLARELGIRHVDTVAISSYDHDNQRELKVLKRAEGDGEGFIVIDDLVDTGGTAVAIREMYPKAHFVTIFAKPAGRPLVDDYVVDIPQDTWIEQPWDMGVVFVPPISGR | soluble
MAGHSKWAQIKRKKAANDLKRGKLISKHLRAIQAAARAGGSPYPEANVQLRNAIEAARADDVPMENIERLLQKLQGGGEGAEQYEEIVYEGYAPGGVALLVYALTDNRNRTASEVRHVFSKHGGSLGTTGSVAWQFERRGVVVCENTEAAQEAAIELGALDLEEEGENLTVYTEPTEAYRIAEALKAKGVRVEAVEVVQHPQNTVALPPEEAQKVMRLVEALEDLDDVQHVYTNLDPESLQVEA | soluble
MSLVAMITTVVGSYPVVKKEETFLDKVKKVFGLYDEYKYAIERAVKDQVKAGVNIISDGQVRGDMVEIFTNNMYGFDGKRVVGRVEFIKPITLKDILYAKSIAKKLNPNVEIKGIITGPCTIASSVRVESCYSDNRDENLIYDIAKALRKEVEALKKHVPIIQIDEPILSTGMYDFDVARKAIDIIVDGLNIKFAMHVCGNVYNIIDELNKFNVDILDHEFASNKKNLVILESMEKKVGFGCVNTKVKKVESVEEIKSLIEEGIEILKNNEKLNKNLSDNILIDPDCGMRLLPIDVAFNKLKNMVEATKLIEGHHHHHH | soluble
MLTIPEKENRGSKEQEVAIMIDALADKGKKALEALSKKSQEEIDHIVHQMSLAAVDQHMVLAKLAHEETGRGIYEDKAIKNLYASEYIWNSIKDNKTVGIIGEDKEKGLTYVAEPIGVICGVTPTTNPTSTTIFKAMIAIKTGNPIIFAFHPSAQESSKRAAEVVLEAAMKAGAPKDIIQWIEVPSIEATKQLMNHKGIALVLATGGSGMVKSAYSTGKPALGVGPGNVPSYIEKTAHIKRAVNDIIGSKTFDNGMICASEQVVVIDKEIYKDVTNEFKAHQAYFVKKDELQRLENAIMNEQKTGIKPDIVGKSAVEIAELAGIPVPENTKLIIAEISGVGSDYPLSREKLSPVLALVKAQSTKQAFQICEDTLHFGGLGHTAVIHTEDETLQKDFGLRMKACRVLVNTPSAVGGIGDMYNELIPSLTLGCGSYGRNSISHNVSATDLLNIKTIAKRRNNTQIFKVPAQIYFEENAIMSLTTMDKIEKVMIVCDPGMVEFGYTKTVENVLRQKTEQPQIKIFSEVEPNPSTNTVYKGLEMMVDFQPDTIIALGGGSAMDAAKAMWMFFEHPETSFFGAKQKFLDIGKRTYKIGMPENATFICIPTTSGTGSEVTPFAVITDSETNVKYPLADFALTPDVAIIDPQFVMSVPKSVTADTGMDVLTHAMESYVSVMASDYTRGLSLQAIKLTFEYLKSSVEKGDKVSREKMHNASTLAGMAFANAFLGIAHSIAHKIGGEYGIPHGRANAILLPHIIRYNAKDPQKHALFPKYEFFRADTDYADIAKFLGLKGNTTEALVESLAKAVYELGQSVGIEMNLKSQGVSEEELNESIDRMAELAFEDQCTTANPKEALISEIKDIIQTSYDYKQ | not soluble
MGSDKIHHHHHHMPYDSTDREIMRFLQGDIPLESRPYKNLAERLELSEEEIVLRVKKLREKGFLRRMGAVLRHRQAGFAVNAMVAWKLENEEQADRAGKIMAGYKEISHCYIREVPPDFDYSIFSMIHVKNEERLAEIIEEISLQTGIGKYIIIRSSRELKKESMQYF | not soluble
RCPELYRGVVMLDSPVLGLADKLFIRAAKRLGFIDRITPAGRTLGRRDAFADLDAARTYFASKTLFRRFDPDCLTAYLQHGLQQDGEQLRLRFDPATEISIYRSIPHTSPLPSRQLKVPLAMVRGKHSRVIMPHHGYLARRMRDGEYLSMPGGHMFPLERPDETAQLLKSLFARWDA | not soluble
GEDPAIQVTGARGASVDMSTLDAVTTALDKEHLSHKSIAFENGSILVRFNDTDTQISARDVISEALGKDKIVALNLAPSTPDWLEAIGASPLKLGLDLRGGVHFLMEVDMDAAMEKLVGQQEEAFRSELRDAKIRYRAIRPSGKEGVEVLLRDEEQLAEAKRTLTKNHPDMNFVESDSNGRYALIATFTEQRLQEIRNYAVEQNITILRNRVNELGVAEPLVQRQGASRIVVELPGVQDTARAKEILGATATLEFREVDDKADLAAAANGRAPAGSEIKQDRDGRPVVLKKRVILSGASITDASSSVDEYGRPQVNISLDSEGGNKMSAFSKKNIGKLMATVFAEYKDSGRKTPEGKVILTKHEEVINQATIQSALGRNFRITGIDSAAEAHN | not soluble
MMKDLNLSNSLFKGYNDKHGLMICGYEWGWSKADEAAYVAGEYKLPENKIDHTFANKSLYFGEQAKKWRYDNTIKNWFEMWGHPLDENGLGGAFEKSLVQTNWAATQGNTIDNPDKFTQPEHIDNFLYHIEKLRPKVILFMGSRLADFLNNQNVLPRFEQLVGKQTKPLETVQKEFDGTRFNVKFQSFEDCEVVCFPHPSASRGLSYDYIALFAPEMNRILSDFKTTRGFK | not soluble
MAHHHHHHMVDYGEGGKNGSLDTVRQTLVCATRILMLAVSCKKVQLIYTLLPFMALIFKELLVSDDEERLRALFSDAKGQCALAGLRRSTANLSLLLDTEQDFTTLSSPWSFSYDTSEVGMKEIRSLTTFLVSGDSGLSEALEYVTTDCLRSGRLLTLYEIVRGFSLSPYGMMELKLDEVRDPHCGVSSHGEGSSVRGHFPHLPTHGELFLNLFTGIHEEFSLTRSPRCVGNELRRHRSSVVGAEVATTDFTLWTLAQSILYSTPGLPETLRHLRDHFAMWDECVLAINIILMCFTDVVHQLRRHSELVQALQHLLVDERNCGYKSFIRYCLENVS | not soluble
